# Data published in patent US20170081411A1 (published 2017).
# Columns and labels:
# [1] = biological target: T1, His-Avidin-FKBP (wild-type FKBP) (biotinylated (position not given)); assay: AlphaLISA direct format: 30 nM biotinylated FKBP + 30 nM FLAG-FRB, everolimus titrated 1:3 from 600 nM (EC50 is of the everolimus titration)
# T1 construct: His tag and biotin acceptor tag are part of the entry; also called biotinylated wild-type FKBP; biotinylated FKBP
# Procedure: (§1) FRB mutations were also ranked in an alternative assay format. […] All dilutions were made in 1× AlphaLISA Immunoassay buffer (PerkinElmer). Anti-Flag acceptor beads (PerkinElmer) were added at 10 ug/ml final concentration and incubated for one hour at room temperature. Streptavidin donor beads (PerkinElmer), were then added at a final concentration of 40 ug/ml and the plate was protected from light and incubated for 30 minutes at room temperature. The plate was then read on the PerkinElmer EnVision Multiplate reader equipped with the Alpha Module using excitation of 680 nm and a 570 nm Emission filter.
# [2] = biological target: T1, His-Avidin-FKBP (wild-type FKBP); assay: AlphaLISA direct format, everolimus titrated, EC50 against wild type FRB
# Procedure: as §1
# T1 sequence (chain, as listed by the source limits assumed): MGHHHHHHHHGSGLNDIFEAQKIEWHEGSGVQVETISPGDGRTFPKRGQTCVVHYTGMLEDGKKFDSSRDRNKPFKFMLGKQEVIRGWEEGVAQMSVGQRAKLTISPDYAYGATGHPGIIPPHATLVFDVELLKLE
Binder,EC50 [1],fold improved against wild type FRB [2]
"His-FLAG-FRB (wild-type FRB) (other, His and FLAG tags are part of the entry; also called wild type Flag-FRB) MGHHHHHHHHGSDYKDDDDKGSASRILWHEMWHEGLEEASRLYFGERNVKGMFEVLEPLHAMMERGPQTLKETSFNQAYGRDLMEAQEWCRKYMKSGNVKDLTQAWDLYYHVFRRISKTS",3.9 nM,
"His-FLAG-FRB E2032I (other, The entry already carries the mutation and the tags; also called E2032I (FLAG tagged)) MGHHHHHHHHGSDYKDDDDKGSASRILWHEMWHEGLIEASRLYFGERNVKGMFEVLEPLHAMMERGPQTLKETSFNQAYGRDLMEAQEWCRKYMKSGNVKDLTQAWDLYYHVFRRISKTS",2.46 nM,
"His-FLAG-FRB E2032L (other, The entry already carries the mutation and the tags; also called E2032L (FLAG tagged)) MGHHHHHHHHGSDYKDDDDKGSASRILWHEMWHEGLLEASRLYFGERNVKGMFEVLEPLHAMMERGPQTLKETSFNQAYGRDLMEAQEWCRKYMKSGNVKDLTQAWDLYYHVFRRISKTS",2.15 nM,
"His-FLAG-FRB T2098L (other, The entry already carries the mutation and the tags; also called T2098L (FLAG tagged)) MGHHHHHHHHGSDYKDDDDKGSASRILWHEMWHEGLEEASRLYFGERNVKGMFEVLEPLHAMMERGPQTLKETSFNQAYGRDLMEAQEWCRKYMKSGNVKDLLQAWDLYYHVFRRISKTS",1.44 nM,3 fold
